Experimental findings from publication PMC2172719 (The Journal of Cell Biology, 2003) are described below.

The series “SEC” deals with the molecule itself. The experiment in a line: SEC. Background: Size exclusion chromatography separates by hydrodynamic size, large species first.
A further series deals with T1, His-Ubc13 (yeast, UniProt P52490 1-153).
T1 sequence: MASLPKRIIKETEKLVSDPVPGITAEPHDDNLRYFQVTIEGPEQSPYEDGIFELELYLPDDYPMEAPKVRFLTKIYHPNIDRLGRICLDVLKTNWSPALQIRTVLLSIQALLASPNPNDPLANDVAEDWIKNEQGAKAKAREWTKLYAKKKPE
The experiment in a line: SEC.

For orientation: stoichiometry N means a count of units in the complex or per binding partner.

B1: His-tagged p97 ΔN (domain or fragment)
chain: not shown
For the molecule B1, the “stoichiometry N” value in “SEC” came to 6.

B2: His-Mms2 (natural protein)
chain: MSKVPRNFRLLEELEKGEKGFGPESCSYGLADSDDITMTKWNGTILGPPHSNHENRIYSLSIDCGPNYPDSPPKVTFISKINLPCVNPTTGEVQTDFHTLRDWKRAYTMETLLLDLRKEMATPANKKLRQPKEGETF
Turning to B2, the binding result with His-Ubc13 is “binds”.
